The labels stand for the following.
B1: SPbeta AimR (arbitrium peptide receptor / transcription factor AimR of Bacillus subtilis phage SPbeta), full length (natural protein, Bacillus subtilis SPbeta phage, UniProt O64094 1-386, looked up)
chain: MELIRIAMKKDLENDNSLMNKWATVAGLKNPNPLYDFLNHDGKTFNEFSSIVNIVKSQYPDREYELMKDYCLNLDVKTKAARSALEYADANMFFEIEDVLIDSMISCSNMKSKEYGKVYKIHRELSNSVITEFEAVKRLGKLNIKTPEMNSFSRLLLLYHYLSTGNFSPMAQLIKQIDLSEISENMYIRNTYQTRVHVLMSNIKLNENSLEECREYSKKALESTNILRFQVFSYLTIGNSLLFSNYELAQENFLKGLSISVQNENYNMIFQQALCFLNNVWRKENKWINFESDSIMDLQEQAHCFINFNENSKAKEVLDKLDLLVHNDNELAMHYYLKGRLEQNKACFYSSIEYFKKSNDKFLIRLPLLELQKMGENQKLLELLLL
notes: AimR of Bacillus subtilis phage SPbeta, amplified from genomic DNA of Bacillus subtilis strain 168; full-length AimR (residues 1-386); Cloned in pLicSGC1 with N-terminal 6xHis tag and TEV site; digested with TEV protease; A selenomethionine derivative was used to phase the AimR-AimP structure; also called WT AimR; apo AimR; source: E. coli BL21 (DE3) RIL, purified (HisTrap FF, TEV digestion, …)
B2: SPbeta AimR D360A mutant (natural protein, Bacillus subtilis SPbeta phage)
chain: B1 chain with D360A
B3: SPbeta AimR N202A mutant (natural protein, Bacillus subtilis SPbeta phage)
chain: B1 chain with N202A
B4: SPbeta AimP arbitrium peptide GMPRGA (peptide)
peptide: GMPRGA
notes: active (mature) arbitrium hexapeptide AimP of phage SPbeta, product of the yopL gene, which corresponds to phi3T aimP; also called GMPRGA peptide; SPbeta-specific arbitrium peptide; source: synthetic peptide, bought: ProteoGenix (95% purity)

Data set [1] concerns the molecule itself. As to the kind of experiment: SEC-MALS; as the apo run, with 1 mM AimP peptide added to the injected sample and 1 μM peptide in the running buffer (25 mM Tris pH 8, 250 mM NaCl).
Data set [2] deals with the molecule itself. As to the kind of experiment: SEC-MALS; 50 μL protein at 5 mg/mL on Superdex 200 HR 10/300 in 25 mM Tris pH 8, 250 mM NaCl; no peptide. For orientation: SEC sorts molecules by how far they enter the pores of the column.
Data set [3] has as its target B1. As to the kind of experiment: thermal shift assay (differential scanning fluorimetry); 20 μM protein, 5x Sypro Orange, 20 mM Tris pH 8, 250 mM NaCl, heated 20 to 85°C; apparent Kd from 10 peptide concentrations from 0 to 2 μM, fitted to a single binding site per monomer. Conditions: both partners purified.

Numbering of substitutions follows the chain as printed. Names and notes keep the numbering of the source.

As for B1, the stoichiometry N – broadly, the number of molecules, sites or subunits per partner or assembly – in data set [1] is 2.

Regarding B2, the “stoichiometry N” value in data set [2] is 2.

B3: in data set [2], the “stoichiometry N” value amounted to 2.

Regarding B4, in data set [3], the Kd amounted to 53.8 nM and the “increment in the melting temperature (Tm) of AimR” value is roughly 10 °C.

The values above are taken from paper PMC6458997 (Molecular Cell, 2019).
